{"source": "paper PMC2683335", "about": "(The Journal of biological chemistry, 2008)", "molecules": {"B1": {"name": "Methanothermobacter thermautotrophicus MCM (MthMCM), wild type (natural protein, UniProt O27798 1-666, looked up)", "chain": "MMKTVDKSKTLTKFEEFFSLQDYKDRVFEAIEKYPNVRSIEVDYLDLEMFDPDLADLLIEKPDDVIRAAQQAIRNIDRLRKNVDLNIRFSGISNVIPLRELRSKFIGKFVAVDGIVRKTDEIRPRIVKAVFECRGCMRHHAVTQSTNMITEPSLCSECGGRSFRLLQDESEFLDTQTLKLQEPLENLSGGEQPRQITVVLEDDLVDTLTPGDIVRVTGTLRTVRDERTKRFKNFIYGNYTEFLEQEFEELQISEEDEEKIKELAGDPNIYEKIIRSTAPSIHGYREVKEAIALQLFGGTGKELDDKTRLRGDIHILIVGDPGIGKSQMLKYVSKLAPRGIYTSGKGTSGVGLTAAAVRDEFGGWSLEAGALVLGDKGNVCVDELDKMREEDRSAIHEALEQQTISIAKAGIMATLNSRCSVLAAANPKFGRFDSYKSIAEQIDLPSTILSRFDLIFVVEDKPDEEKDRELARHILKTHKEDHMPFEIDPELLRKYIAYARKNVRPVLTDEAMQVLEDFYVSMRASAADEDSPVPITARQLEALVRLSEASAKIKLKEHVEAEDARKAIKLSQACLKQVGYDPETGKIDIDKVEGRTPKSERDKFRLLLELIKEYEDDYGGRAPTNILITEMMDRYNVSEEKVEELIRILKDKGAIFEPARGYLKIV"}}, "key": {"[1]": {"biological_target": "MthMCM R137A mutant (Methanothermobacter thermautotrophicus)", "experiment": "negative-stain electron microscopy"}, "[2]": {"biological_target": "MthMCM RR137,160AA double mutant (Methanothermobacter thermautotrophicus)", "experiment": "AUC"}, "AUC": {"biological_target": "the molecule itself", "experiment": "AUC"}, "[3]": {"biological_target": "the molecule itself", "experiment": "SEC + other: sucrose gradient sedimentation"}}}
{"molecule": "MthMCM R137A mutant (natural protein)", "values": [{"measurement": "stoichiometry N", "setting": "[1]", "result": 14, "unit": "subunits"}]}
{"molecule": "MthMCM RR137,160AA double mutant (natural protein)", "values": [{"measurement": "stoichiometry N", "setting": "[2]", "result": 7, "unit": "subunits"}]}
{"molecule": "B1", "values": [{"measurement": "stoichiometry N", "setting": "AUC", "result": 12.2, "unit": "subunits/complex"}, {"measurement": "stoichiometry N", "setting": "[3]", "result": 11.6, "unit": "monomers"}]}
